Sequences and labels used below:
B1: TPR t1 (parent)
chain: GACCAAUCUGCCCUCAGAGCUCGAGAACAUCUUCGGAUGCAGAGGAGGCAGGCUUCGGUGGCGCGAUAGCGCCAACGUCCUCAACCUCCAAUGCAUCCCACCACAUGAUGAUGCCUGAAGAGCCUUGGUUUUUUG

The variants in the series derive from B1. The series can be described thus: polymerase ribozyme fitness, log enrichment relative to wild type (log ratio); higher = more active; in vitro selection for triplet polymerase activity. In a few lines: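 One round of in vitro selection, in triplicate, was applied to PCR-built, transcribed mutant libraries of each subunit of a heterodimeric triplet polymerase ribozyme. The steps were annealing with a biotinylated primer, partner subunit and triplets, incubation frozen at −7 °C, gel excision of extended constructs, streptavidin-bead capture and RT-PCR. Fitness is the logarithm, base 2, of genotype enrichment over wild-type enrichment from inverse-variance-weighted replicate averages of Illumina-sequenced inputs and outputs, keeping genotypes with ≥10 input reads and ≥1 read per output.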
For the variant GACCAAUCUGCCCUCAGAGCUCGAGAACAUCUUCGGAUGCAGAGGAGGCAGGCUUCGGUGGCGCGAUAGCGUCAACGCCCUCAACCUCCAAUGCAUCCCACCACAUGAUGAUGCCUUAAGAACCUUGGUGUUUUG [C72U U78C G117U G122A U130G], the “polymerase ribozyme fitness (log ratio)” value is -2.87. Consider GACCAAUCUGCCCUCAGAGCUCGAGAACAUCUUCGGAUGCAGAGGAGGCAGGCUUCGGUGGCGCGAUAGCGUCAACGUCCUCAACCUCCAAUGCAUCCCACCACAUGAUGAUGCCUGAAGAGCCUUGGUUUAUUG [C72U U132A], for which the “polymerase ribozyme fitness (log ratio)” value was -0.0764. Turning to GACCAAUCUGCCCUCAGAGCUCGAGAACAUCUUCGGAUGCAGAGGAGGCAGGCUUCGGUGGCGCGAUAGCGUCAACGUCCUCAACCUCCAAUUCAUCCCACCACAUGAUGAUGCCUGAAGAGCCUUGGUUUUUUG [C72U G93U], the “polymerase ribozyme fitness (log ratio)” value is -1.56. To GACCAAUCUGCCCUCAGAGCUCGAGAACAUCUUCGGAUGCAGAGGAGGCAGGCUUCGGUGGCGCGAUAGCGUCAACGUCCUCAACCUCCAAUACAUCCCACCACAUGAUGAUGCCUGAAGAGCCUUGGUUUUUUG [C72U G93A] belongs -0.542; to GACCAAUCUGCCCUCAGAGCUCGAGAACAUCUUCGGAUGCAGAGGAGGCAGGCUUCGGUGGCGCGAUAGCGUCAACGGCCUCAACCUCCAAUGCAUCCCACCACAUGAUGAUGCCUGAAGAGCCUUGGUUUUUUG [C72U U78G], -1.7. The value for GACCAAUCUGCCCUCAGAGCUCGAGAACAUCUUCGGAUGCAGAGGAGGCAGGCUUCGGUGGCGCGAUAGCGUCAACGCCCUCAACCUCCAAUGUAUCCCACCACAUGAUGAUGCCUGAAGAGCCUUGGUUUUUUG [C72U U78C C94U] was -0.922; that for GACCAAUCUGCCCUCAGAGCUCGAGAACAUCUUCGGAUGCAGAGGAGGCAGGCUUCGGUGGCGCGAUAGCGUCAACGUCCUCAACCUCCAAUGCAUCCCACCACAUGAUGAUGCCUGAAGAGCGUUGGUUUUUUG [C72U C124G] was 1.47. To GACCAAUCUGCCCUCAGAGCUCGAGAACAUCUUCGGAUGCAGAGGAGGCAGGCUUCGGUGGCGCGAUAGCGUCAACUUCCUCAACCUCCAAUGCAUCCCACCAAAUGAUGAUGCCUGAAGAGCCUUGGUUUUUUG [C72U G77U C104A] belongs -2.21. With GACCAAUCUGCCCUCAGAGCUCGAGAACAUCUUCGGAUGCAGAGGAGGCAGGCUUCGGUGGCGCGAUAGCGUCAACGUCCUCAACCUCCAAUUCAUCCCACCACAUGAUGGUGCCUGAAGAGCCUUGGUUUUUUG [C72U G93U A111G], the “polymerase ribozyme fitness (log ratio)” value was -2.76.

Regarding GACCAAUCUGCCCUCAGAGCUCGAGAACAUCUUCGGAUGCAGAGGAGGCAGGCUUCGGUGGCGCGAUAGCGCAAACGUCCUCAACCUCCAAUGCAUCCCACCACAUGAUGCUGCCUGAAGAGCCUUGGUUUUUUG [C73A A111C], the “polymerase ribozyme fitness (log ratio)” value stood at 0.669.

For GACCAAUCUGCCCUCAGAGCUCGAGAACAUCUUCGGAUGCAGAGGAGGCAGGCUUCGGUGGCGCGAUAGCGCAAACGUCCUCAACCUCCAAUGCAUCCCACCACAUGAUGAUGCCUGGAGAGCCUUGGUUUUUUG [C73A A118G], the “polymerase ribozyme fitness (log ratio)” value worked out at 0.164. In the case of GACCAAUCUGCCCUCAGAGCUCGAGAACAUCUUCGGAUGCAGAGGAGGCAGGCUUCGGUGGCGCGAUAGCGUCAACGUCCUCAACCUCCAAUGCAUCCCACCACAUGAUGAUGCCUGAAGAGCCUUGGUUUUCUG [C72U U133C], the “polymerase ribozyme fitness (log ratio)” value was determined as 0.275. To GACCAAUCUGCCCUCAGAGCUCGAGAACAUCUUCGGAUGCAGAGGAGGCAGGCUUCGGUGGCGCGAUAGCGUCAACGUCCUCAACCUCCAAUGCAUCCCACCACAUGAUGAUGCCUCAAGAGCCUUGGUUUUUUG [C72U G117C] belongs -2.69.

In the case of GACCAAUCUGCCCUCAGAGCUCGAGAACAUCUUCGGAUGCAGAGGAGGCAGGCUUCGGUGGCGCGAUAGCGUCAACGUCCUCAACCUCCAAUGCAUCCCACCACAUGAUGAUGCCUGAAGAUCCUUGGUUUUUUG [C72U G122U], the “polymerase ribozyme fitness (log ratio)” value was determined as 0.145. To GACCAAUCUGCCCUCAGAGCUCGAGAACAUCUUCGGAUGCAGAGGAGGCAGGCUUCGGUGGCGCGAUAGCGUCAACGUCCUCAACCUCCAAUGCAUCCCACCACAUGAUGAUGCCUCAAGAGCCGUGGUUUUUUG [C72U G117C U125G] belongs -5.63. Consider GACCAAUCUGCCCUCAGAGCUCGAGAACAUCUUCGGAUGCAGAGGAGGCAGGCUUCGGUGGCGCGAUAGCGUCAACGUCCUCAACCUCCAAUGCAUCCCACCACAUGAUGAAGCCUGAAGAGCCUUGGUUUUUUG [C72U U112A], for which the “polymerase ribozyme fitness (log ratio)” value stood at 0.821. The value for GACCAAUCUGCCCUCAGAGCUCGAGAACAUCUUCGGAUGCAGAGGAGGCAGGCUUCGGUGGCGCGAUAGCGUCAACGUCCUCAACCUCCAAUGCAUCCCACCACAUGAUGACGCCUGAAGAGCCUUGGUUUUUUG [C72U U112C] was 1.19; that for GACCAAUCUGCCCUCAGAGCUCGAGAACAUCUUCGGAUGCAGAGGAGGCAGGCUUCGGUGGCGCGAUAGCGCAGACGUCCUCAACCUCCAAUGCAUCCCACCACAUGAUGAUGCCUGAAGAGCCUUGGUUUUUUG [C73A A74G] was -0.555. The value for GACCAAUCUGCCCUCAGAGCUCGAGAACAUCUUCGGAUGCAGAGGAGGCAGGCUUCGGUGGCGCGAUAGCGUCAACGUCCUCAACCUCCAAUGCAUCCCACCACAUGAUGAUCCCUGAAGAGGCUUGGUUUUUUG [C72U G113C C123G] was -1.69; that for GACCAAUCUGCCCUCAGAGCUCGAGAACAUCUUCGGAUGCAGAGGAGGCAGGCUUCGGUGGCGCGAUAGCGUCAACGUCCUCAACCUCCAAUGCAUCCCACCACAUGAUGAUACCUGAAGAGCCUUGGUUUUUUG [C72U G113A] was -1.48; that for GACCAAUCUGCCCUCAGAGCUCGAGAACAUCUUCGGAUGCAGAGGAGGCAGGCUUCGGUGGCGCGAUAGCGUCAACGCCCUCAACCUCCAAUGCAUUCCACCACAUGAUGAUGCCUGAAGAGCCUUGGUUUUUUG [C72U U78C C97U] was -1.02.

These data come from the RNAGym collection of RNA variant scans (doi:10.1073/pnas.2313332121).
